Test results published in article PMC3864119 (Journal of proteome research, 2013).

Target: FLAG-tagged human GABAC-ρ1 subunit V353D (human, UniProt P24046 22-479, V353D)
Assay: co-IP

B1: Calnexin (natural protein, human (endogenous in HEK293), UniProt P27824 21-592, looked up)
chain: HDGHDDDVIDIEDDLDDVIEEVEDSKPDTTAPPSSPKVTYKAPVPTGEVYFADSFDRGTLSGWILSKAKKDDTDDEIAKYDGKWEVEEMKESKLPGDKGLVLMSRAKHHAISAKLNKPFLFDTKPLIVQYEVNFQNGIECGGAYVKLLSKTPELNLDQFHDKTPYTIMFGPDKCGEDYKLHFIFRHKNPKTGIYEEKHAKRPDADLKTYFTDKKTHLYTLILNPDNSFEILVDQSVVNSGNLLNDMTPPVNPSREIEDPEDRKPEDWDERPKIPDPEAVKPDDWDEDAPAKIPDEEATKPEGWLDDEPEYVPDPDAEKPEDWDEDMDGEWEAPQIANPRCESAPGCGVWQRPVIDNPNYKGKWKPPMIDNPSYQGIWKPRKIPNPDFFEDLEPFRMTPFSAIGLELWSMTSDIFFDNFIICADRRIVDDWANDGWGLKKAADGAAEPGVVGQMIEAAEERPWLWVVYILTVALPVFLVILFCCSGKKQTSGMEYKKTDAPQPDVKEEEEEKEEEKDKGDEEEEGEEKLEEKQKSDAEEDGGTVSQEEEDRKPKAEEDEILNRSPRNRKPRRE
fold change of the ratio of immunoprecipitated calnexin/ρ1 against WT: 1.8 fold
